As a reminder, the Kd is the concentration at which binding is half-saturated. Lower therefore signals higher affinity. As usually defined, the koff is the rate constant with which the complex falls apart. Usually kon stands for the rate constant with which the complex forms. Low values mean slow association, high ones fast association. By IC50 is commonly meant the concentration that inhibits the measured activity by half. Read a low IC50 as higher potency.

Where only a bound is given, the exact number is not on record here.

For assay [1], the target named is T1, Biotinylated murine VEGF-164 (Acro Biosystem) (mouse, UniProt Q00731-2 27-190, biotinylated (site not stated)).
T1 construct: Bought protein; also called Mouse VEGF164; mouse VEGFA
T1 sequence (looked up): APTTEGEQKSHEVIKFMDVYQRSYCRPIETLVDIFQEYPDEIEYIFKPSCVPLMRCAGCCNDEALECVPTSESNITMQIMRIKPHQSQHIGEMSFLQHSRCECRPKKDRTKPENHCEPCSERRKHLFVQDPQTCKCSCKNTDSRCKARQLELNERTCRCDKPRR
Nature of the assay: BLI, biotinylated antigen on streptavidin tips, 1:1 global fit. On the procedure: (§1) Binding characterization was performed using BLI (Satorius) at RT with a 1000 rpm flow-rate. Biotinylated human VEGF-165 (Acro Biosystem) was immobilized onto Streptavidin-coated tips at a concentration of 3 μg/mL for 60 sec in BLI buffer (0.1% BSA and 0.01% Tween-20 in PBS). After a 30 sec baseline, anti-VEGFA DotBodies were associated at 8 different concentrations, including a blank reference, in BLI buffer for 60 sec, followed by a 400 sec dissociation in BLI buffer. The background buffer signal was subtracted using the 0 nM concentration reference, and the kinetics of binding were calculated using a global fit following a 1:1 binding model, using BLI Analysis Software. The bivalent molecule 16A2.1x2 was also characterized as described here, but with a 600 sec dissociation. To characterize the binding of all the clones against murine VEGFA, the same procedure was employed, but the immobilized target was replaced with biotinylated murine VEGF-164 (Acro Biosystem).
For orientation: BLI is a label-free optical method that tracks binding on a fibre tip over time.

For assay [2], the target named is T2, Biotinylated human VEGF-165 (Acro Biosystem) (human, UniProt P15692 207-395, biotinylated (site not stated)).
T2 construct: Bought protein; also called human VEGFA
The description is as above. On the procedure: as §1

Assay [3] addresses T3, Human VEGF-121 (Acro Biosystems) (human, UniProt P15692 207-395).
T3 construct: Bought protein; also called human VEGFA
T3 sequence: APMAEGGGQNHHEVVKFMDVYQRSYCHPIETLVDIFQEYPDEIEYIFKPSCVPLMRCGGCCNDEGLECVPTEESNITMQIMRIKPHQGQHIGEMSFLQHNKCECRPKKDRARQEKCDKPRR
Kind of assay: competitive ELISA, inhibition of VEGF-121 (0.5 nM) binding to coated VEGFR1 (FIG. 5). On the procedure: (§2) To perform the competitive ELISA, the VEGFR1 was immobilized at a concentration of 2 μg/mL onto a Maxisorp 96-well plate (Thermo Scientific) overnight at 4° C., washed three times with PBS and blocked for 1 h at RT with ELISA Block Buffer (EBB: 0.2% BSA in PBST). […] The samples were incubated for 2 h at RT, and 50 μL transferred onto the VEGFR1-coated plate. After 2 h incubation, the plate was washed 3 times with PBST. 50 μL of streptavidin-HRP conjugate (Thermo Scientific) was added at a 1:5,000 dilution in EBB, and incubated for 1 h at RT. The plate was washed 5 times with PBST, and developed with 50 μL 3,3′,5,5′-Tetramethylbenzidine (TMB) substrate (GeneTex). After 5-15 min, the reactions were stopped by adding 50 μL of 2M H₂SO₄, and signal was measured at an absorbance of 450 nm.
For orientation: In an ELISA, binding on a coated surface is turned into a signal by an enzyme label.

Assay [4] addresses T3, Human VEGF-121 (Acro Biosystems). Kind of assay: competitive ELISA, inhibition of VEGF-121 (0.5 nM) binding to coated VEGFR1 (FIG. 4). On the procedure: as §2
The target in assay [5] is T2, Biotinylated human VEGF-165 (Acro …). Nature of the assay: not stated at this place (BLI in Example 10). On the procedure:
as §1

Assay [6] shares this target. Kind of assay: BLI, biotinylated antigen on streptavidin tips, 600 sec dissociation, 1:1 global fit. On the procedure:
as §1

B1: 23D5.1 (VHH)
VHH: EVQLVESGGGLVQPGGSLRLSCAISGFDLATTDIDWVRQAPGKGLEWVARIFRPSDFTDYADSVKGRFTISADTSKNTVYLQMNSLRAEDTAVYYCVRPDSYAYNILFVTRTFNALHYRGQGTLVTVSS
notes: Autonomous humanised VH domain (DotBody), from the 16C2.1-based library without heat challenge; E. coli, ATG codon 5' (possible initiator Met), 3' hexahistidine tag; also called DotBody 23D5.1
In the case of B1, in assay [1], the Kd was 8.34 nM, the koff is 0.00169 s⁻¹ and the kon came out at 205000 M⁻¹ s⁻¹. In assay [2], binding was characterised by a dissociation constant (Kd) of 2.8 nM, the koff amounted to 0.000802 s⁻¹ and the kon stood at 286000 M⁻¹ s⁻¹. This molecule yielded a concentration for half-maximal inhibition (IC50) in assay [3] of 1.4 nM.

B2: 13A6 (VHH)
VHH: EVQLVESGGGLVQPGGSLRLSCAISGFSLAATDIDWVRQAPGKGLEWVARIFPSAGSTDYADSVKGRFTISADTSKNTVYLQMNSLRAEDTAVYYCGRSDSYSYNVFLHNPTYTALDYRGQGTLVTVSS
notes: Autonomous humanised VH domain (DotBody); also called anti-VEGF DotBody 13A6; clone 13A6
In assay [1], B2 displayed an equilibrium dissociation constant (Kd) of 248 nM, a koff of 0.0104 s⁻¹ and a kon of 41900 M⁻¹ s⁻¹. In assay [2], this molecule showed a dissociation constant Kd of 38.9 nM, a koff of 0.00475 s⁻¹ and a kon of 122000 M⁻¹ s⁻¹. This molecule registered an IC50 in assay [4] of 5900 nM.

B3: 16A2.1 (VHH)
VHH: EVQLVESGGGLVQPGGSLRLSCAISGFALAETDIDWVRQAPGKGLEWVARIFSSGGNTDYADSVKGRFTISADTSKNTVYLQMNSLRAEDTAVYYCGRSDSIAYNVILPNSTYTARDYRGQGTLVTVSS
notes: E. coli, ATG codon 5' (possible initiator Met), 3' hexahistidine tag; also called anti-VEGF DotBody 16A2.1; clone 16A2.1
Turning to B3, the Kd in assay [5] is < 5 nM; in assay [1], 16.6 nM; in assay [2], 2.5 nM. In addition, the dissociation rate constant (koff) in assay [1] is 0.00193 s⁻¹; in assay [2] it was 0.000986 s⁻¹. Besides, the kon in assay [1] is 116000 M⁻¹ s⁻¹; in assay [2], 394000 M⁻¹ s⁻¹. For the same molecule, the figures for the IC50 in assay [4] and in assay [3] were 12.2 nM and 3 nM, respectively.

B4: 16A6.1 (VHH)
VHH: EVQLVESGGGLVQPGGSLRLSCAISGFSLAATDIDWVRQAPGKGLEWVARIFPFSGSTDYTDSVKGRFTISADTSKNTVYLQMNSLRAEDTAVYYCGRSDSYSYNVFLHDPAYTALDYRGQGTLVTVSS
notes: E. coli, ATG codon 5' (possible initiator Met), 3' hexahistidine tag; also called clone 16A6.1
As to B4, in assay [1], the Kd is 18.4 nM, the koff is 0.00225 s⁻¹ and the kon amounted to 122000 M⁻¹ s⁻¹. Moreover, in assay [2], the Kd was 14.7 nM, the koff turned out to be 0.00136 s⁻¹ and the kon was 92400 M⁻¹ s⁻¹. The IC50 in assay [4] was 41.4 nM.

B5: 21D9.1 (VHH)
VHH: EVQLVESGGGLVQPGGSLRLSCAISGFSLGATDIDWVRQAPGKGLEWVARIFSPSDFTDYADSVKGRFTISADTSKNTVYLQMNSLRAEDTAVYYCSRPDTYAYNIFPHTASHGAFNYRGQGTLVTVSS
notes: Autonomous humanised VH domain (DotBody), from the 16C2.1-based library with heat challenge; E. coli, ATG codon 5' (possible initiator Met), 3' hexahistidine tag; also called DotBody 21D9.1
B5: in assay [1], the Kd amounted to 41.7 nM, the koff worked out at 0.00243 s⁻¹ and the on-rate constant (kon) stood at 58000 M⁻¹ s⁻¹. In assay [2], this molecule had a Kd of 20.5 nM, a koff of 0.00099 s⁻¹ and a kon of 48200 M⁻¹ s⁻¹. For the same molecule, the IC50 in assay [3] came out at 1 nM.

B6: 20A2.1 (VHH)
VHH: EVQLVESGGGLVQPGGSLRLSCAISGFPLADTDIDWVRQAPGKGLEWVARIFSSYGSTDYADSVKGRFTISADTSKNTVYLQMNSLRAEDTAVYYCGRSDSIAYNIILPASTYSSRDYRGQGTLVTVSS
notes: Autonomous humanised VH domain (DotBody), from the 16A2.1-based library with heat challenge; E. coli, ATG codon 5' (possible initiator Met), 3' hexahistidine tag; also called DotBody 20A2.1
As to B6, in assay [1], the Kd stood at 10.2 nM, the koff is 0.00135 s⁻¹ and the kon was found to be 132000 M⁻¹ s⁻¹. For the same molecule, in assay [2], the Kd was 5.54 nM, the koff was 0.00055 s⁻¹ and the on-rate (kon) stood at 97700 M⁻¹ s⁻¹. The IC50 in assay [3] was determined as 1.6 nM.

B7: 21A1.1 (VHH)
VHH: EVQLVESGGGLVQPGGSLRLSCAISGFALATTDIDWVRQAPGKGLEWVARIFNPSDFTDYADSVKGRFTISADTSKNTVYLQMNSLRAEDTAVYYCGRPAVYGYNIFLDSPTYDASQYRGQGTLVTVSS
notes: Autonomous humanised VH domain (DotBody), from the 16C2.1-based library with heat challenge; E. coli, ATG codon 5' (possible initiator Met), 3' hexahistidine tag; also called DotBody 21A1.1
In assay [1], B7 yielded a Kd of 13.8 nM, a koff of 0.00231 s⁻¹ and a kon of 167000 M⁻¹ s⁻¹. In assay [2], this molecule came in with a Kd of 11.3 nM, a koff of 0.00103 s⁻¹ and a kon of 91500 M⁻¹ s⁻¹. In assay [3], the IC50 came to 0.9 nM.

B8: 21E6.1 (VHH)
VHH: EVQLVESGGGLVQPGGSLRLSCAISGFTLAATDIDWVRQAPGKGLEWVARIFTPTGFSDYADSVKGRFTISADTSKNTVYLQMNSLRAEDTAVYYCGIPELYAYNIFMDIPAYNDVYYRGQGTLVTVSS
notes: Autonomous humanised VH domain (DotBody), from the 16C2.1-based library with heat challenge; E. coli, ATG codon 5' (possible initiator Met), 3' hexahistidine tag; also called DotBody 21E6.1
As for B8, in assay [1], the Kd is 14.2 nM, the koff came out at 0.00117 s⁻¹ and the kon was 82800 M⁻¹ s⁻¹. In assay [2], the affinity, expressed as Kd, was 6.3 nM; the koff came to 0.000442 s⁻¹; the kon was 69600 M⁻¹ s⁻¹. The molecule further yielded an IC50 in assay [3] of 7.5 nM.

B9: 16A2.1x2 (VHH)
chain: SEVQLVESGGGLVQPGGSLRLSCAISGFALAETDIDWVRQAPGKGLEWVARIFSSGGNTDYADSVKGRFTISADTSKNTVYLQMNSLRAEDTAVYYCGRSDSIAYNVILPNSTYTARDYRGQGTLVTVSSGGGGSGGGGSGGGGSGGGGSGGGGSGGGGSGGGGSEVQLVESGGGLVQPGGSLRLSCAISGFALAETDIDWVRQAPGKGLEWVARIFSSGGNTDYADSVKGRFTISADTSKNTVYLQMNSLRAEDTAVYYCGRSDSIAYNVILPNSTYTARDYRGQGTLVTVSSHHHHHH
notes: Tandem of two 16A2.1 VH domains in one chain; 'produced in the same way' as the single clones (E. coli, ATG codon 5', 3' hexahistidine tag); also called bivalent molecule 16A2.1x2; bivalent 16A2.1x2 molecule
Regarding B9, in assay [6], the affinity, expressed as Kd, was 0.301 nM; the koff was 0.000128 s⁻¹; the kon was determined as 426000 M⁻¹ s⁻¹.

B10: 20A3.1 (VHH)
VHH: EVQLVESGGGLVQPGGSLRLSCAISGFSLADTDIDWVRQAPGKGLEWVARIFSSSGSTYYADSVKGRFTISADTSKNTVYLQMNSLRAEDTAVYYCDRADSVGYNVIFPGSTYSRSGYRGQGTLVTVSS
notes: Autonomous humanised VH domain (DotBody), from the 16A2.1-based library with heat challenge; E. coli, ATG codon 5' (possible initiator Met), 3' hexahistidine tag; also called DotBody 20A3.1
As for B10, in assay [1], binding was put at a Kd of 8.7 nM, the koff stood at 0.000889 s⁻¹ and the kon was determined as 102000 M⁻¹ s⁻¹. Moreover, in assay [2], the Kd came to 2.78 nM, the koff was 0.000725 s⁻¹ and the kon came to 260000 M⁻¹ s⁻¹. Moreover, the IC50 in assay [3] was determined as 0.9 nM.

B11: 21A8.1 (VHH)
VHH: EVQLVESGGGLVQPGGSLRLSCAISGFSVDATDIDWVRQAPGKGLEWVARIFSPSGFTDYADSVKGRFTISADTSKNTVYLQMNSLRAEDTAVYYCDRPEFYAYNIFHDPRTVPAGNYRGQGTLVTVSS
notes: Autonomous humanised VH domain (DotBody), from the 16C2.1-based library with heat challenge; E. coli, ATG codon 5' (possible initiator Met), 3' hexahistidine tag; also called DotBody 21A8.1
In assay [1], B11 yielded a Kd of 46.1 nM, a koff of 0.00292 s⁻¹ and a kon of 63400 M⁻¹ s⁻¹. In assay [2], binding was characterised by a dissociation constant (Kd) of 20 nM, the koff stood at 0.00118 s⁻¹ and the kon amounted to 58000 M⁻¹ s⁻¹. The molecule also registered an IC50 in assay [3] of 1.8 nM.

For the origin of these results see patent US20240132580A1 (DOTBIO PTE, published 2024).
